Experimental data from PMC4658230.

Key:
Test in all cases: cells, lysate or membranes named
[1] = substrate: C=Cc1ccccc1; conditions: pH 7.4; 37.0 °C
[2] = substrate: O=[N+]([O-])c1ccc(O)cc1; conditions: 1 mM NADPH, 37°C, pH 7.4
[3] = substrate: Nc1ccccc1; conditions: 1 mM NADPH, 37°C, pH 7.4
[4] = other: rat liver microsomes 0.5 mg/mL
[5] = other: rat liver mitochondria 2 mg/mL

Protein	Km [1]	Km [2, 4]	kcat [2, 4]	Km [3, 4]	Km [2, 5]	kcat [2, 5]	Km [3, 5]	kcat [3, 5]
erCYP2E1 (Rattus norvegicus) (protein) MAVLGITIALLVWVATLLVISIWKQIYNSWNLPPGPFPLPILGNIFQLDLKDIPKSFTKLAKRFGPVFTLHLGSRRIVVLHGYKAVKEVLLNHKNEFSGRGDIPVFQEYKNKGIIFNNGPTWKDVRRFSLSILRDWGMGKQGNEARIQREAQFLVEELKKTKGQPFDPTFLIGCAPCNVIADILFNKRFDYNDKKCLRLMSLFNENFYLLSTPWIQLYNNFADYLRYLPGSHRKIMKNVSEIKQYTLEKAKEHLQSLDINCARDVTDCLLIEMEKEKHSQEPMYTMENVSVTLADLFFAGTETTSTTLRYGLLILMKYPEIEEKLHEEIDRVIGPSRVPAVRDRLDMPYMDAVVHEIQRFINLVPSNLPHEATRDTVFQGYVIPKGTVVIPTLDSLLYDSHEFPDPEKFKPEHFLNENGKFKYSDYFKAFSAGKRVCVGEGLARMELFLLLSAILQHFNLKSLVDPKDIDLSPVTVGFGSIPPQFKLCVIPRS	100 (31 to 2600) μM	28 (24 to 34) μM	940 (880 to 1000) pmol/min/pmol CYP2E1	2.1 (0.010 to 5.2) μM	–	–	–	–
mtCYP2E1 (Rattus norvegicus) (protein) AVLGITIALLVWVATLLVISIWKQIYNSWNLPPGPFPLPILGNIFQLDLKDIPKSFTKLAKRFGPVFTLHLGSRRIVVLHGYKAVKEVLLNHKNEFSGRGDIPVFQEYKNKGIIFNNGPTWKDVRRFSLSILRDWGMGKQGNEARIQREAQFLVEELKKTKGQPFDPTFLIGCAPCNVIADILFNKRFDYNDKKCLRLMSLFNENFYLLSTPWIQLYNNFADYLRYLPGSHRKIMKNVSEIKQYTLEKAKEHLQSLDINCARDVTDCLLIEMEKEKHSQEPMYTMENVSVTLADLFFAGTETTSTTLRYGLLILMKYPEIEEKLHEEIDRVIGPSRVPAVRDRLDMPYMDAVVHEIQRFINLVPSNLPHEATRDTVFQGYVIPKGTVVIPTLDSLLYDSHEFPDPEKFKPEHFLNENGKFKYSDYFKAFSAGKRVCVGEGLARMELFLLLSAILQHFNLKSLVDPKDIDLSPVTVGFGSIPPQFKLCVIPRS	45 (36 to 56) μM	–	–	–	28 (24 to 33) μM	110 (100 to 110) pmol/min/pmol CYP2E1	10 (7.5 to 12) μM	52 (49 to 54) pmol/min/pmol CYP2E1
